The target in assay [1] is T1, recombinant human TfR1 (transferrin receptor 1) (human, UniProt P02786 89-760).
T1 construct: Bought recombinant His-tagged protein; also called hTfR1
The assay is described as follows: SPR (Biacore), single-cycle kinetics, His-tagged TfR1 captured, VNAR-Fc injected. The method, then:
(§1) Binding kinetics of VNAR-Fcs was determined by surface plasmon resonance (Biacore T200, GE Healthcare). CM5 chips were coated with anti-His antibodies (His Capture Kit, GE Healthcare) as recommended by the manufacturer and human or mouse his-tagged TfR1 (SinoBiological) at 10 ug/mL in HBS-EP+ (GE Healthcare) was captured at flow rate 10 ul/min (contact time 120 s). […] A flow cell without TfR1 captured served as a reference. Sensorgrams were fitted and kinetic constants were determined using Biacore T200 Evaluation software. Chips were regenerated in 10 mM Glycine-HCl, pH 1.5 (contact time: 120 s at flow rate 30 ul/min).
(SPR reads the build-up and loss of mass on a sensor chip optically.)

Assay [2] has as its target T2, recombinant mouse TfR1 (transferrin receptor 1) (mouse, UniProt Q62351 89-763).
T2 construct: Bought recombinant His-tagged protein; also called mTfR1
The description is as above. The method, then: as §1

The target of the next assay is T3, human serum albumin (human, UniProt P02768 25-609).
T3 construct: Negative control protein; also called HSA
T3 sequence (P02768 25-609 limits assumed): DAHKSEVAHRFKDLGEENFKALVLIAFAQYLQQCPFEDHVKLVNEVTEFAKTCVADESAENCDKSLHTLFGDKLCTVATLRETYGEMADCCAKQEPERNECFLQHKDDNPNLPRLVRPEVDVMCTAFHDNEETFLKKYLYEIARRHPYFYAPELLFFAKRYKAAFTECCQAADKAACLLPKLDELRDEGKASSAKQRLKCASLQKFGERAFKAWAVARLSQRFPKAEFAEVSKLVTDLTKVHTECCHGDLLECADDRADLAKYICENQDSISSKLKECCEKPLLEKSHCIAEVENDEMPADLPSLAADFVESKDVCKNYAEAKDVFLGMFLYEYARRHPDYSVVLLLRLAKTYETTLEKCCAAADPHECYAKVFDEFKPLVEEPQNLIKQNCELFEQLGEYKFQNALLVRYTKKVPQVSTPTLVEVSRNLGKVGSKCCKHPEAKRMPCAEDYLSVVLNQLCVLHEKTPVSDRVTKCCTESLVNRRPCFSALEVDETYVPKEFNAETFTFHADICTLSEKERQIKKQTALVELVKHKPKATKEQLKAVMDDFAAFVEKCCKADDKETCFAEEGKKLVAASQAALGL
The assay is described as follows: ELISA with Expi293 culture medium used directly, coated HSA, anti-Fc detection. The method, then: (§2) FIG. 6. […] The VNAR-Fc fusion proteins were transiently expressed using Expi293 expression system. VNAR-Fc constructs contained signal peptide sequence in order to be secreted. Cell growth media was used directly in ELISA. HSA and mouse TfR2 were used as negative controls for unspecific binding. A clone in position 52 represents untransfected cells. Total Fc concentration was measured with capture and detection anti-Fc antibody pair using irrelevant VNAR-Fc at known concentration for standard curve.
(§3) The next day the plates were blocked with […] with 0.1% Tween20 (PBST) for 1 hour at room temperature. Transfected cells were spun down at 2000 rpm for 10 minutes and the collected supernatant was mixed with milk in PBST to a final 2.5% concentration and incubated for 30 minutes. 100 μl of blocked supernatant was transferred into coated plates and incubated for 1 hour. […] The plates were washed and developed with TMB detection solution before stopping the reaction with 1% HCl. Absorbance was measured at 450 nm. A VNAR-Fc at know concentration was used for standard curve to calculate VNAR-Fc expression level.

In the next assay the target is T4, recombinant mouse TfR2 (mouse, UniProt Q9JKX3 103-798, limits assumed).
T4 construct: Negative control protein
T4 sequence (looked up): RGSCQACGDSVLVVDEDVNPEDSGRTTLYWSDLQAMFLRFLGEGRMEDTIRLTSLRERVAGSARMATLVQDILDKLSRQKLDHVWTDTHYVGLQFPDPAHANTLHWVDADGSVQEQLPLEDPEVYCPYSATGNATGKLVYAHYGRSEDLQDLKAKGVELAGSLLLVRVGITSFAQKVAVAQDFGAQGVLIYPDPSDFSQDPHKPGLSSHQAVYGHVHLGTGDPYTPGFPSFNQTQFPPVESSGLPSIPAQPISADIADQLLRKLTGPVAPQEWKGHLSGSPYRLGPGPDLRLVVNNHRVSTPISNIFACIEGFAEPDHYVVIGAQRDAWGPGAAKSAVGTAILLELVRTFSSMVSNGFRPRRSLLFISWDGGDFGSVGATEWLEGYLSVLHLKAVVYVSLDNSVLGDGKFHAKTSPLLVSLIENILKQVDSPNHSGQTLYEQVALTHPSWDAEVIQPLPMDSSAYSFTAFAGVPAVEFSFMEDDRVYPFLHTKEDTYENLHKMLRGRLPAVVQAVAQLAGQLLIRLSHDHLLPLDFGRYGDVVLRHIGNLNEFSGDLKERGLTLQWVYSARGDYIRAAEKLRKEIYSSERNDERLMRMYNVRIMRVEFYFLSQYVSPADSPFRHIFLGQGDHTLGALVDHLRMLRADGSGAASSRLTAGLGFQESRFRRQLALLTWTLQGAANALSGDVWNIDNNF
Briefly: ELISA with Expi293 culture medium used directly, coated mouse TfR2, anti-Fc detection. The method, then:
as §2, §3

Assay [3] addresses T1, recombinant human TfR1 (transferrin …). The assay is described as follows: Octet, human TfR1 immobilised; 8D3 as first antibody, which does not bind human TfR1 (grey column); white cell. The method, then:
FIGS. 15A and 15B. Epitope binning by cross-competition binding to mouse and human TfR1. VNAR-Fc fusion proteins were tested for cross-blocking in a pairwise manner against mouse (A) and human TfR1 (B) immobilised on biosensors using the Octet platform.
A series of biochemical parameters was examined to further characterize the panel VNAR to TfR1 obtained from in vivo phage display selections. Epitope binning experiments were performed to assess whether the VNARs could compete against each other for binding to either the mouse or human TfR1. […] Because each VNAR binds via a unique CDR3 region with a different structural topography, steric interactions could be important efficient transcytosis.
On the technique in general: Biolayer interferometry detects binding as a change in optical thickness at a sensor tip.

For assay [4], the target named is T2, recombinant mouse TfR1 (transferrin …). Briefly: ELISA, plate coated with 1 µg/ml recombinant mouse TfR1, purified VNAR-Fc titrated, 4-parameter fit; Clone 2 stands twice in the legend. A general note: In an ELISA, binding on a coated surface is turned into a signal by an enzyme label.
Assay [5] deals with T1, recombinant human TfR1 (transferrin …). Briefly: ELISA with Expi293 culture medium used directly, coated human TfR1, anti-Fc detection, absorbance at 450 nm. The method, then:
as §2, §3

The target is the same in assay [6]. Briefly: ELISA, plate coated with 1 µg/ml recombinant human TfR1, purified VNAR-Fc titrated, 4-parameter fit. The method, then:
(§4) It was previously reported that affinity might play a crucial role in TfR1 mediated brain penetration. […] Affinity estimation and unspecific binding was initially assessed using ELISA for human and mouse TfR1.
as §3

Assay [7] deals with T2, recombinant mouse TfR1 (transferrin …). The assay is described as follows: ELISA, plate coated with 1 µg/ml recombinant mouse TfR1, purified VNAR-Fc titrated, 4-parameter fit. The method, then:
as §4, §3

The target is the same in assay [8]. Briefly: SPR (Biacore), single-cycle kinetics, His-tagged TfR1 captured, VNAR-Fc injected; SPR single cycle kinetics, immobilised mouse TfR1, VNAR-Fc up to 250 nM. The method, then: as §1

Several values for one entry are separate records, joined by “and”; a condition that tells them apart may be missing. Equal values may be shown once.

T2 sequence (Q62351 89-763 limits assumed): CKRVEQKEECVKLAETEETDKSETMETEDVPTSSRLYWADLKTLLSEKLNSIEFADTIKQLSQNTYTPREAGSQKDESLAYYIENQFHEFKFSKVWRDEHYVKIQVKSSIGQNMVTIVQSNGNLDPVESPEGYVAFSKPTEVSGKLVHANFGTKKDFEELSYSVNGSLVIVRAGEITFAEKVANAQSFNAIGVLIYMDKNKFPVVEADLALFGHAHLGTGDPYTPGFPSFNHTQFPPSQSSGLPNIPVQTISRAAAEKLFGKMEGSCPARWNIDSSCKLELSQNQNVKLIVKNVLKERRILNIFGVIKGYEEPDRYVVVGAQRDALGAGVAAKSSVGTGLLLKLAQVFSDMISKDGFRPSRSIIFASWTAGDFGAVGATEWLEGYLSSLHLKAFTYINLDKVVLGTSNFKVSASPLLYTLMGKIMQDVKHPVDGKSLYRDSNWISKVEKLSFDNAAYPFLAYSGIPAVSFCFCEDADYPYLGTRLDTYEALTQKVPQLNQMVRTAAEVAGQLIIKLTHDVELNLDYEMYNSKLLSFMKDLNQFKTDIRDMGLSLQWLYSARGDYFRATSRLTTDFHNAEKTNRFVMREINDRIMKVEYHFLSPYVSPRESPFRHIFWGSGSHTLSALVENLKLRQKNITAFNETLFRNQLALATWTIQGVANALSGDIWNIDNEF
T1 sequence (P02786 89-760 limits assumed): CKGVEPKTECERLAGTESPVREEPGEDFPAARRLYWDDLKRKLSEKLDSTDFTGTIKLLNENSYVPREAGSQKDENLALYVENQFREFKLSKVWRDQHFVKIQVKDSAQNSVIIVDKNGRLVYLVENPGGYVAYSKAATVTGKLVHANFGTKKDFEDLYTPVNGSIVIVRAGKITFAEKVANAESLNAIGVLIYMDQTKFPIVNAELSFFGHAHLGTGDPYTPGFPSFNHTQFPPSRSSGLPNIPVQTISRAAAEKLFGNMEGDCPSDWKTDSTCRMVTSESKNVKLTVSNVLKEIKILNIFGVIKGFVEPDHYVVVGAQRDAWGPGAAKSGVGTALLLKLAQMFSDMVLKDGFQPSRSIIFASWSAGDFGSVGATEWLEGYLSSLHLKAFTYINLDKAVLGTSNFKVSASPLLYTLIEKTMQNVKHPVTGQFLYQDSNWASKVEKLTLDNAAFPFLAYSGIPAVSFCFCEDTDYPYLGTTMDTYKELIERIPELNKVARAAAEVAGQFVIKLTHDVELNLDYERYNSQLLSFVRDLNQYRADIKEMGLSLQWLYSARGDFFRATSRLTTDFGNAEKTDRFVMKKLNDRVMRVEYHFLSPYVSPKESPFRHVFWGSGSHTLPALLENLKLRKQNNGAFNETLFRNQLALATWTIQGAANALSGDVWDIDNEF

B1: Clone 2 VNAR-Fc fusion protein (Fc fusion)
chain: ARVDQTPQTITKETGESLTINCVLRDNNCALSTTYWYRKKSGSTNEENISKGGRYVETVNSGSKSFSLKINDLTVEDSGTYRCNVFGVDNGWWCDVYGGGTVVTVNA
notes: Bivalent VNAR-Fc; not shown: glycine/serine linker (GxSx)n extending the hinge; human IgG1 Fc (hinge, CH2, CH3) of pFUSE-hIgG1e3-Fc2; G236 also deleted
What is called Kd is the equilibrium constant for the complex coming apart. In general, koff refers to the rate constant with which the complex falls apart. For orientation: kon means the second-order rate constant of association. For orientation: EC50 means the concentration giving half of the maximal effect. As to B1, in assay [1], the Kd is 2.34 nM, the koff is 0.000445 s⁻¹ and the kon came to 190000 M⁻¹ s⁻¹. Moreover, in assay [2], the Kd was found to be 2.56 nM, the koff came to 0.000501 s⁻¹ and the kon came out at 195000 M⁻¹ s⁻¹. The binding result with human serum albumin is given as “no binding”. Moreover, the binding result with recombinant mouse TfR2 is “no binding”. Further, the “Octet signal as second antibody after 8D3” value in assay [3] was determined as 0.454. Besides, the EC50 in assay [4] is 433 nM and 761 nM.

B2: Clone 11 VNAR-Fc fusion protein (Fc fusion)
chain: ARVDQTPQTITKETGESLTINCVLRDSNCALPSTHWYRKKSGSTNEESISKGGRYVETVNSGSKSFSLRINDLTVEDSGTYRCKVLNFFTHTCVQVQKYDVYGGGTAVTVNA
notes: as for B1
On to B2, for which the binding result is “no binding” with human serum albumin, “no binding” with recombinant mouse TfR2 and “binds” in assay [5].

B3: Clone 39 VNAR-Fc fusion protein (Fc fusion)
chain: ARVDQTPQTITKETGESLTINCVLRDSNCALSSTLWYRTKSGSRNEESISKGGRYVETVNSGSKSFSLKINDLTVEDSGTYRCNVQGMVYDGSSFWWCDVYGDSTAVTVNA
notes: as for B1
On to B3, for which the dissociation constant Kd in [1] was 7.22 nM; in [8], 18.3 nM. For the same molecule, the values for the off-rate constant (koff) in [1] and in [8] were 0.000684 s⁻¹ and 0.00294 s⁻¹, respectively. Also, the values for the kon in assay [1] and in assay [8] were 94700 M⁻¹ s⁻¹ and 161000 M⁻¹ s⁻¹, respectively. For the same molecule, the binding result with human serum albumin and with recombinant mouse TfR2 was “no binding” each time. The EC50 amounted to 257 nM in assay [6] and 1530 nM in assay [7]. In addition, the “Octet signal as second antibody after 8D3” value in assay [3] worked out at 0.609.

These data come from patent US20220031857A1 (OSSIANIX, published 2022).
